{"source": "paper PMC8023661", "about": "“Engineering of Ancestors as a Tool to Elucidate Structure, Mechanism, and Specificity of Extant Terpene Cyclase” (Journal of the American Chemical Society, 2021)", "molecules": {"B1": {"name": "SvS-A2 (synthetic construct) (protein)", "chain": "MAMTVTEVDLPPIYCPLESAIHPRVHEVEKRAVEWIRRSGMCASEEERAWVIATHSADFFARFAPTAADEDRLLATSLWVYWGFAFDDARCDNGPLSTRPAQFNALAGRVQRALEAPSAEDNGDRFVPALQDIARRFRSFGTPTQVRRFVHAHRAWLSGVAWQIGNQARGHMPGLDDYLAMRLLSAGGEPTFAMLEIATGAEVPDREMHRPAVRALTEMAIMVAALDNDRHSLRKELSRGHTDQNIYSVLMHHRGMSLQEAVEEATKLRDRILLRFLELHDRVRPGAGAELSTYLQGLRHGIRGNAEWGLRVPRYLSLGRVPDPMEDAPLTWAESPSDSSPSPLPGAPSIAWWWDDALLGA", "notes": "homodimer; first resolved N-terminal residue Asp09"}}, "key": {"SvS-A2 [1]": {"molecular_target": "T1, SvS-A2 (synthetic construct, UniProt Z9I7L2B0V8, A89H/A224I)", "T1 construct": "homodimer; first resolved N-terminal residue Asp09", "T1 sequence (Z9I7L2B0V8 1-361 A89H/A224I)": "B1 chain with A89H, A224I", "assay": "Malachite Green assay; GC-FID competition experiment", "type": "biochemical", "conditions": "60 µM each FPP and GGPP, ca. 400 nM enzyme, 30 °C, 3 h; library variants carry Ala89His"}, "SvS-WT": {"molecular_target": "T2, SvS-WT (Streptomyces violens, UniProt P0DPK6)", "T2 construct": "extant wild-type enzyme, expressed in E. coli BL21(DE3), purified and desalted; dimeric in solution", "T2 sequence (P0DPK6 1-359)": "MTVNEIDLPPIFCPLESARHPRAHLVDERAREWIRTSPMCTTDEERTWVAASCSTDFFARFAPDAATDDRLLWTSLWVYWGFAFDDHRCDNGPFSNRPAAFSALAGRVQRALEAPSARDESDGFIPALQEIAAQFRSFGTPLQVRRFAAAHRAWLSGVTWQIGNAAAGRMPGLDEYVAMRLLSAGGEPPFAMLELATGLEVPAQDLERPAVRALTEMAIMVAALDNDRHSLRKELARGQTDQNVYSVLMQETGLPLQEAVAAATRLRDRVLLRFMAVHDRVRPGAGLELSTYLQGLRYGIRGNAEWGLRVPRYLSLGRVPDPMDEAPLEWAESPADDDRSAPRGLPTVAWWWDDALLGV", "assay": "in vitro product formation, GC", "type": "biochemical", "conditions": "2 µM enzyme, 3 h"}, "SvS-A2 [2]": {"molecular_target": "T3, SvS-A2 (synthetic construct, UniProt Z9I7L2B0V8, A89H/W156Y)", "T3 construct": "homodimer; first resolved N-terminal residue Asp09", "T3 sequence (Z9I7L2B0V8 1-361 A89H/W156Y)": "B1 chain with A89H, W156Y", "assay": "Malachite Green assay; GC-FID competition experiment", "type": "biochemical", "conditions": "60 µM each FPP and GGPP, ca. 400 nM enzyme, 30 °C, 3 h; library variants carry Ala89His"}, "[3]": {"molecular_target": "spiroviolene synthase (SvS) from Streptomyces violens, extant enzyme (Streptomyces violens)", "assay": "SEC; size exclusion chromatography of the enzyme in solution; conditions in the Supporting Methods (not shown)"}, "[4]": {"substrate": "CC(C)=CCC/C(C)=C/CC/C(C)=C/CC/C(C)=C/COP(=O)(O)OP(=O)(O)O", "assay": "initial rates of spiroviolene formation, cooperative fit", "type": "biochemical, synthetic construct", "conditions": "0.5 µM enzyme, Hill coefficient fit", "excerpt": "initial rates of spiroviolene formation, cooperative fit on SvS-A2 | The KM value for GGPP reported herein is twice as high as previously reported"}, "[5]": {"substrate": "CC(C)=CCC/C(C)=C/CC/C(C)=C/CO[P@@](=O)(O)OP(=O)(O)O", "assay": "initial rates of hedycaryol formation, Michaelis-Menten fit", "type": "biochemical, synthetic construct", "conditions": "0.5 µM enzyme"}}, "note": "Numbering of substitutions follows the chain as printed."}
{"molecule": "CC(C)=CCC/C(C)=C/CC/C(C)=C/COP(=O)(O)OP(=O)(O)O", "note": "[FPP]", "values": [{"measurement": "Malachite Green assay; GC-FID competition experiment", "setting": "SvS-A2 [1]", "result": "Ala224Ile (group IV) reverses substrate preference of the reconstructed ancestral enzyme"}, {"measurement": "in vitro product formation, GC", "setting": "SvS-WT; 60 µM FPP, 50 mM Tris-HCl pH 7.4, 30 °C", "result": "the extant enzyme in fact showed higher activity with FPP than GGPP"}]}
{"molecule": "CC(C)=CCC/C(C)=C/CC/C(C)=C/CC/C(C)=C/COP(=O)(O)OP(=O)(O)O", "note": "[GGPP]", "values": [{"measurement": "Malachite Green assay; GC-FID competition experiment", "setting": "SvS-A2 [2]", "result": "A Trp156Tyr exchange (Group III) results in a highly active and diterpene specific SvS-A2 variant"}, {"measurement": "in vitro product formation, GC", "setting": "SvS-WT; 60 µM GGPP, 30 °C", "result": "both enzymes accepted FPP and GGPP as substrates"}]}
{"molecule": "spiroviolene synthase (SvS) from Streptomyces violens, extant enzyme", "values": [{"measurement": "stoichiometry N", "setting": "[3]", "result": 2}]}
{"molecule": "B1", "values": [{"measurement": "Km", "setting": "[4]", "result": "49 ± 6", "unit": "µM"}, {"measurement": "kcat", "setting": "[4]", "result": "5.8 ± 0.6 × 10^-3 s^-1"}, {"measurement": "Km", "setting": "[5]", "result": "28 ± 11", "unit": "µM"}, {"measurement": "kcat", "setting": "[5]", "result": "0.3 ± 0.04 × 10^-3 s^-1"}]}
